# Source: publication PMC12412624, “Engineered Cas12j‐8 is a Versatile Platform for Multiplexed Genome Modulation in Mammalian Cells”
# Numbering of substitutions follows the chain as printed.
# Columns and labels:
# [1] = test system: T1, dCas12j-8 D527R D527R;D369A;E567A;D658A (bacteriophage (metagenome)); settings: HEK293T cells; panel 1c (compare within a panel only); scale: mean GFP / mean GFP of wild type, printed, no background subtraction
# T1 sequence: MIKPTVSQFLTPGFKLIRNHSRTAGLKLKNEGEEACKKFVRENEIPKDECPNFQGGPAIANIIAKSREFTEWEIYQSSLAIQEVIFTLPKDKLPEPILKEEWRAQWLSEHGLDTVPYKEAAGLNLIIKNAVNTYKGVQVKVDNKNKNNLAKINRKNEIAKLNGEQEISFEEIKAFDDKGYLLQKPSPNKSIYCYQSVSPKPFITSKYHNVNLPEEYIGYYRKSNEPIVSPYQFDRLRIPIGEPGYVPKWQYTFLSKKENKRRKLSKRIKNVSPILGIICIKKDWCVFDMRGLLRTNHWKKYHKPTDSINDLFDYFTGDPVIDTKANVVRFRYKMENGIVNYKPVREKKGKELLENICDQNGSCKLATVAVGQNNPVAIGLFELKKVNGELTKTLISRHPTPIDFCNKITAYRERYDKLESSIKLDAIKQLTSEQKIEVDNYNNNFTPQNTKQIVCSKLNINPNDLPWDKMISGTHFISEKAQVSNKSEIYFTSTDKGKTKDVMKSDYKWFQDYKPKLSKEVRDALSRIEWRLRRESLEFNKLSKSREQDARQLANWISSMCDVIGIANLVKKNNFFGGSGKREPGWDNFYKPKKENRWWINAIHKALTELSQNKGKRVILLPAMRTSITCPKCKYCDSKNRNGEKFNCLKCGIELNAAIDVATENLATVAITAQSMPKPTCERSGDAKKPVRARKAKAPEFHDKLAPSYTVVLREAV
# [2] = test system: T2, dCas12j-8 E119R E119R;D369A;E567A;D658A (bacteriophage (metagenome)); settings: HEK293T cells; panel 1c (compare within a panel only); scale: mean GFP / mean GFP of wild type, printed, no background subtraction
# T2 sequence: T1 sequence with E119R, R527D
# [3] = test system: T3, dCas12j-8 E258R+D523R E258R;D523R;D369A;E567A;D658A (bacteriophage (metagenome)); settings: HEK293T cells; panel 1d (compare within a panel only); scale: mean GFP / mean GFP of wild type, printed, no background subtraction
# T3 sequence: T1 sequence with E258R, D523R, R527D
# [4] = test system: T4, dCas12j-8 E258R+D313R E258R;D313R;D369A;E567A;D658A (bacteriophage (metagenome)); settings: HEK293T cells; panel 1d (compare within a panel only); scale: mean GFP / mean GFP of wild type, printed, no background subtraction
# T4 sequence: T1 sequence with E258R, D313R, R527D
sequence,measurement,setting,value
CUUUCAAGACUAAUAGAUUGCUCCUUACGAGGAGACACUCCCUAUCAGUGAUAGAG / TTNACTCCCTATCAGTGATAGAG / CTCTATCACTGATAGGGAGTNAA [TetO],binding signal,[1],1.56
same,binding signal,[2],1.08
same,binding signal,[3],2.67
same,binding signal,[4],3.3
